Measured values from patent US6689364B2, “Borrelia burgdorferi polypeptides and uses thereof” (Tufts University, priority 2000, dated 2004).
“Also recorded” adds a separate entry of the source.

Assays:
[1] = system: OspA; test: Serum OspA-specific IgG in immunized mice; assay type: in vivo; conditions: for serum OspA-specific IgG pre-infection: FIG. 7A; for serum OspA-specific IgG post-infection: FIG. 7B
Source text: (§1) On day 35, the vaccinated mice were exposed to 5×10^3 or 1×10^4 passage 0 N40 B. burgdorferi in the right footpad. On day 56, mice were sacrificed and the following tissue samples were taken for further analysis: ankles (for histology to analyze arthritis), blood and bladder (for culture to detect B. burgdorferi), serum (for serology to determine the antibody response), and ears (for PCR to detect B. burgdorferi).

[2] = system: HLA-DRB1*0401 restricted OspA-specific human T cell clones; test: Cytokine production by T cell clones on stimulation with OspA; assay type: cell-based; conditions: for production of interferon gamma by T cell clones: FIG. 3A; for production of interleukin 13 by T cell clones: FIG. 3B
Description: (§2) Binding of OspA to HLA-DRB1*0401 is determined by measuring stimulation of T cells reactive with wildtype OspA. The stimulation of T cells is determined by measuring OspA-induced proliferation or cytokine production, including interferon gamma and interleukin 13 (see Examples, below).
(§3) Human T cells were cloned from the synovial fluid of an HLA DRB1*0401 homozygous patient based upon their ability to recognize the epitope OspA165-173 in the context of HLA-DRB1*0401. These clones were then tested for their ability to respond functionally to wild type versus FTK OspA by either proliferation or cytokine secretion.
(§4) Three different human DR4-restricted T cell clones from a patient with treatment-resistant Lyme arthritis were selected for their ability to respond to the wild type OSpA165-173 peptide. […] These T cells proliferate in response to stimulation with wildtype OspA, but not FTK-OspA.

[3] = system: HLA-DRB1*0401 restricted OspA-specific human T cell clones; test: Proliferation response of human DR4-restricted T cell clones to OspA; assay type: cell-based; conditions: for proliferation response of T cell clones: three human DR4-restricted T cell clones from a patient with treatment-resistant Lyme arthritis, FIG. 2
Description: as §2, §3, §4

[4] = system: N40 B. burgdorferi; test: Mouse vaccination and B. burgdorferi challenge, protection against Lyme arthritis; assay type: in vivo, mice; conditions: trials A and B together; for mice protected from development of arthritis: 10 μg vaccine on days 0, 14, 28, day 35 challenge with 5×10^3 or 1×10^4 N40 B. burgdorferi in footpad, day 56 histology; for mice protected from development of arthritis (protected/total): same protocol, number of mice
Source text: The mouse vaccination protocol was based upon experiments in the literature which initially identified OspA as having potential as a vaccine. The vaccine has not been tested in vivo with tick challenge due to the technically difficult nature of the animal handling for such experiments. However, the artificial system used here has been utilized by others in the past and reflects accurately on the protective ability of the modified vaccine. (Fikrig et al, 1997 Immunity 6:531-539; Bockenstedt et al,1993 J Immunol 151:900-906, Fikrig et al, 1992 PNAS 89:5418-5421)
The correlation between infection and arthritis, measured for the first vaccination trial, was 1:1.
as §1

[5] = system: monoclonal antibody LA-2; test: In vitro binding of protective anti-OspA monoclonal antibody LA-2; conditions: in vitro assay, FIG. 6
Source text: Monoclonal antibody LA-2, which provides passive immunity against B. burgdorferi in mice, binds an epitope in OspA.

Molecule	serum OspA-specific IgG pre-infection [1]	serum OspA-specific IgG post-infection [1]	production of interferon gamma by T cell clones [2]	production of interleukin 13 by T cell clones [2]	proliferation response of T cell clones [3]	mice protected from development of arthritis [4]	mice protected from development of arthritis (protected/total) [4]	binding of monoclonal antibody LA-2 [5]	ability to stimulate OspA-specific T cell clones (proliferation or cytokine secretion) ([3]; clones from synovial fluid of an HLA DRB1*0401 homozygous patient)
wildtype OspA: recombinant wildtype B. burgdorferi outer surface protein A [reference compound]	similar	similar	induces production	induces production	proliferate	75%	12/16	binds; also recorded: equivalently	–
FTK-OspA (protein) KQNVSSLDEKNSVSVDLPGEMKVLVSKEKNKDGKYDLIATVDKLELKGTSDKNNGSGVLEGVKADKSKVKLTISDDLGQTTLEVFKEDGKTLVSKKVTSKDKSSTEEKFNEKGEVSEKIITRADGTRLEYTGIKSDGSGKAKEVLKGFTLEGKLTAEKTTLVVKEGTVTLSKNISKSGEVSVELNDTDSSAATKKTAAWNSGTSTLTITVNSKKTKDLVFTKENTITVQQYDSNGTKLEGSAVEITKLDEIKNALK	similar	similar	not	not	not	87.5%	14/16	binds; also recorded: equivalently	significantly decreased
